Biological target: MAP1B, endogenous, rat striatum (rat, UniProt P15205 2-2461, limits assumed)
Test: co-immunoprecipitation (anti-Gα, then anti-MOR) from rat striatum, Western blot

Chain of MAP1B, endogenous, rat striatum (P15205 2-2461 limits assumed): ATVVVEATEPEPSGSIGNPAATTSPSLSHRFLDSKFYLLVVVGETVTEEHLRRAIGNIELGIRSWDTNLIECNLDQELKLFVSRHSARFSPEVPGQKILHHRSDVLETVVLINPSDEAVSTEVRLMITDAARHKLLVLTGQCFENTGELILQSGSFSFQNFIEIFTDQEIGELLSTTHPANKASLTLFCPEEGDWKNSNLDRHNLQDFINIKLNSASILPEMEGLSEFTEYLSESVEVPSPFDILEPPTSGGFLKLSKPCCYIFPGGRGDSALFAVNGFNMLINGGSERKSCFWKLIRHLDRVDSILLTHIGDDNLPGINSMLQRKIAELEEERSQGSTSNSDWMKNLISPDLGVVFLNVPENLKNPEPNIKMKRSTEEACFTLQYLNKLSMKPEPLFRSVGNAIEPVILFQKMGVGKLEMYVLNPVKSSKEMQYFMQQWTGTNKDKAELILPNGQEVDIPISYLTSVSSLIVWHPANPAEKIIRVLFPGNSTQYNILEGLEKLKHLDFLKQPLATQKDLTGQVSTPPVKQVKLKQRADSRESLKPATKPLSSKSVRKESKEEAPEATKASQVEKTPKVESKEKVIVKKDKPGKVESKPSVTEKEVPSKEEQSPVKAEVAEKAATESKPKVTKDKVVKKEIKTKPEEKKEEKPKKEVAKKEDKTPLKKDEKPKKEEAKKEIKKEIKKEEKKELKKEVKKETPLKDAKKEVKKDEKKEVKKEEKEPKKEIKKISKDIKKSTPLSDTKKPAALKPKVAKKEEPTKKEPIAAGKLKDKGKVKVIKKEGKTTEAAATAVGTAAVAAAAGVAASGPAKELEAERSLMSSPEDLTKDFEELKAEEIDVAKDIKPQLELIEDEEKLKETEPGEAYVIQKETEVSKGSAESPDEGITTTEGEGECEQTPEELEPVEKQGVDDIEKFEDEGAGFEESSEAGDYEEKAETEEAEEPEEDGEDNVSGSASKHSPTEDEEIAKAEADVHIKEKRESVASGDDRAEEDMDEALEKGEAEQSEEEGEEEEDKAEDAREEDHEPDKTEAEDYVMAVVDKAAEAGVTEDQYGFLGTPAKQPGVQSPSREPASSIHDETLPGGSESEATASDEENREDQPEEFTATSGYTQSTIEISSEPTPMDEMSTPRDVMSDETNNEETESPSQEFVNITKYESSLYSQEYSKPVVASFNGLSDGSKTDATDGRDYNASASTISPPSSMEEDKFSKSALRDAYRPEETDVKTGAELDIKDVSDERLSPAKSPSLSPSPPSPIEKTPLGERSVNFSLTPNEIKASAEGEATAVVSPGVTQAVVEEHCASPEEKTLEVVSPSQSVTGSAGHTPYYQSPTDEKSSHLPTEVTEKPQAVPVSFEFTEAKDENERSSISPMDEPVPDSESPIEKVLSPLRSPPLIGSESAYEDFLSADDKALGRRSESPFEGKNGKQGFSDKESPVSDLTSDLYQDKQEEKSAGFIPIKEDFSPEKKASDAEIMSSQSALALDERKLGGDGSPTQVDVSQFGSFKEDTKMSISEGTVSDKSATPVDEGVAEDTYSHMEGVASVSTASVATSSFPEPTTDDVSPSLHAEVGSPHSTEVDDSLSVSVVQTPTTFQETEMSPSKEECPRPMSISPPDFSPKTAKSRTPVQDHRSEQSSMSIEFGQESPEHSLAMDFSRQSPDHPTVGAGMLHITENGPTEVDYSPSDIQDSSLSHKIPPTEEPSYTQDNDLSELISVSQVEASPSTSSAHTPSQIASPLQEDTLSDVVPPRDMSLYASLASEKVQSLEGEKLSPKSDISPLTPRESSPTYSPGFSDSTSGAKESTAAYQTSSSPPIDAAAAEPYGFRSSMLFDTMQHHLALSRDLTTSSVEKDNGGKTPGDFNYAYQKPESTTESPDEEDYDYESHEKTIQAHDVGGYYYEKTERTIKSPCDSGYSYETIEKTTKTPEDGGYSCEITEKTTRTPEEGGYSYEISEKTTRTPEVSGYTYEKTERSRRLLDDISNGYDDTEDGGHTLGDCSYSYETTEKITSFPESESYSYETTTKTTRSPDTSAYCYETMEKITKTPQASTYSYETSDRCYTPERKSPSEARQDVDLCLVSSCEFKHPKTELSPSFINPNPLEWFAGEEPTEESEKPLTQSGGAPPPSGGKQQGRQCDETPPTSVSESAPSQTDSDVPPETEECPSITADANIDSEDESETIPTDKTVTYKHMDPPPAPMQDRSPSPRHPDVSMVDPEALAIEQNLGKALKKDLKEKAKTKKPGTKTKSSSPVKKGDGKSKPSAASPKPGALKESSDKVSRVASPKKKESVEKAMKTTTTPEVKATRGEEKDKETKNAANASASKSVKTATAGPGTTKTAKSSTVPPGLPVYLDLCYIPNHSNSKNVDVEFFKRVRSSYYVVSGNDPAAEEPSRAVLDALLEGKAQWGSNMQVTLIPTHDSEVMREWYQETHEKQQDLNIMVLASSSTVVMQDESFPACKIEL

- binding result: no binding
B1: mu opioid receptor (MOR), endogenous, rat striatum (receptor, UniProt P33535 1-398, looked up)
chain: MDSSTGPGNTSDCSDPLAQASCSPAPGSWLNLSHVDGNQSDPCGLNRTGLGGNDSLCPQTGSPSMVTAITIMALYSIVCVVGLFGNFLVMYVIVRYTKMKTATNIYIFNLALADALATSTLPFQSVNYLMGTWPFGTILCKIVISIDYYNMFTSIFTLCTMSVDRYIAVCHPVKALDFRTPRNAKIVNVCNWILSSAIGLPVMFMATTKYRQGSIDCTLTFSHPTWYWENLLKICVFIFAFIMPVLIITVCYGLMILRLKSVRMLSGSKEKDRNLRRITRMVLVVVAVFIVCWTPIHIYVIIKALITIPETTFQTVSWHFCIALGYTNSCLNPVLYAFLDENFKRCFREFCIPTSSTIEQQNSTRVRQNTREHPSTANTVDRTNHQLENLEAETAPLP
notes: Endogenous receptor immunoprecipitated with anti-MOR or detected with anti-MOR in anti-Gα immunoprecipitates; also called µ opioid receptor

Reference: US20090191579A1 (PAIN THERAPEUTICS, published 2009)
